B1: MTSP-1 protease domain I41A/Y60gW/D96F/F97G/F99M/C122S/Q175W/Q192A (enzyme)
chain: VVGGTDADEGEWPWQVSLHALGQGHACGASLISPNWLVSAAHCYIDDRGFRWSDPTQWTAFLGLHDQSQRSAPGVQERRLKRIISHPFFNFGTMDYDIALLELEKPAEYSSMVRPISLPDASHVFPAGKAIWVTGWGHTQYGGTGALILQKGEIRVINQTTCENLLPQWITPRMMCVGFLSGGVDSCAGDSGGPLSSVEADGRIFQAGVVSWGDGCAQRNKPGVYTRLPLFRDWIKENTGV
B2: MTSP-1 protease domain I41G/Y60gW/F99L/C122S/Q175R/Q192S (enzyme)
chain: VVGGTDADEGEWPWQVSLHALGQGHGCGASLISPNWLVSAAHCYIDDRGFRWSDPTQWTAFLGLHDQSQRSAPGVQERRLKRIISHPFFNDFTLDYDIALLELEKPAEYSSMVRPISLPDASHVFPAGKAIWVTGWGHTQYGGTGALILQKGEIRVINQTTCENLLPQRITPRMMCVGFLSGGVDSCSGDSGGPLSSVEADGRIFQAGVVSWGDGCAQRNKPGVYTRLPLFRDWIKENTGV
B3: MTSP-1 protease domain I41S/F97del/T98S/F99L/C122S/Q192S (enzyme)
chain: VVGGTDADEGEWPWQVSLHALGQGHSCGASLISPNWLVSAAHCYIDDRGFRYSDPTQWTAFLGLHDQSQRSAPGVQERRLKRIISHPFFNDSLDYDIALLELEKPAEYSSMVRPISLPDASHVFPAGKAIWVTGWGHTQYGGTGALILQKGEIRVINQTTCENLLPQQITPRMMCVGFLSGGVDSCSGDSGGPLSSVEADGRIFQAGVVSWGDGCAQRNKPGVYTRLPLFRDWIKENTGV
B4: MTSP-1 protease domain I41S/F97A/ins97aV/T98L/C122S/Q192A (enzyme)
chain: VVGGTDADEGEWPWQVSLHALGQGHSCGASLISPNWLVSAAHCYIDDRGFRYSDPTQWTAFLGLHDQSQRSAPGVQERRLKRIISHPFFNDAVLFDYDIALLELEKPAEYSSMVRPISLPDASHVFPAGKAIWVTGWGHTQYGGTGALILQKGEIRVINQTTCENLLPQQITPRMMCVGFLSGGVDSCAGDSGGPLSSVEADGRIFQAGVVSWGDGCAQRNKPGVYTRLPLFRDWIKENTGV
B5: MTSP-1 protease domain Q38H/I41T/D96M/ins97aA/C122S/G151D (enzyme)
chain: VVGGTDADEGEWPWQVSLHALGHGHTCGASLISPNWLVSAAHCYIDDRGFRYSDPTQWTAFLGLHDQSQRSAPGVQERRLKRIISHPFFNMFATFDYDIALLELEKPAEYSSMVRPISLPDASHVFPAGKAIWVTGWGHTQYGGTDALILQKGEIRVINQTTCENLLPQQITPRMMCVGFLSGGVDSCQGDSGGPLSSVEADGRIFQAGVVSWGDGCAQRNKPGVYTRLPLFRDWIKENTGV
B6: MTSP-1 protease domain I41S/ins97aT/F99L/C122S/Q175R/Q192H (enzyme)
chain: VVGGTDADEGEWPWQVSLHALGQGHSCGASLISPNWLVSAAHCYIDDRGFRYSDPTQWTAFLGLHDQSQRSAPGVQERRLKRIISHPFFNDFTTLDYDIALLELEKPAEYSSMVRPISLPDASHVFPAGKAIWVTGWGHTQYGGTGALILQKGEIRVINQTTCENLLPQRITPRMMCVGFLSGGVDSCHGDSGGPLSSVEADGRIFQAGVVSWGDGCAQRNKPGVYTRLPLFRDWIKENTGV
B7: MTSP-1 protease domain I41S/Y60gW/ins97aN/F99L/C122S/Q175R/Q192T (enzyme)
chain: VVGGTDADEGEWPWQVSLHALGQGHSCGASLISPNWLVSAAHCYIDDRGFRWSDPTQWTAFLGLHDQSQRSAPGVQERRLKRIISHPFFNDFNTLDYDIALLELEKPAEYSSMVRPISLPDASHVFPAGKAIWVTGWGHTQYGGTGALILQKGEIRVINQTTCENLLPQRITPRMMCVGFLSGGVDSCTGDSGGPLSSVEADGRIFQAGVVSWGDGCAQRNKPGVYTRLPLFRDWIKENTGV
B8: MTSP-1 protease domain I41T/ins97aA/F99Y/C122S/Q175L/Q192A (enzyme)
chain: VVGGTDADEGEWPWQVSLHALGQGHTCGASLISPNWLVSAAHCYIDDRGFRYSDPTQWTAFLGLHDQSQRSAPGVQERRLKRIISHPFFNDFATYDYDIALLELEKPAEYSSMVRPISLPDASHVFPAGKAIWVTGWGHTQYGGTGALILQKGEIRVINQTTCENLLPQLITPRMMCVGFLSGGVDSCAGDSGGPLSSVEADGRIFQAGVVSWGDGCAQRNKPGVYTRLPLFRDWIKENTGV
B9: MTSP-1 protease domain I41A/Y60gW/ins97aE/F99L/C122S/Q175M/Q192T (enzyme)
chain: VVGGTDADEGEWPWQVSLHALGQGHACGASLISPNWLVSAAHCYIDDRGFRWSDPTQWTAFLGLHDQSQRSAPGVQERRLKRIISHPFFNDFETLDYDIALLELEKPAEYSSMVRPISLPDASHVFPAGKAIWVTGWGHTQYGGTGALILQKGEIRVINQTTCENLLPQMITPRMMCVGFLSGGVDSCTGDSGGPLSSVEADGRIFQAGVVSWGDGCAQRNKPGVYTRLPLFRDWIKENTGV
B10: MTSP-1 Q38H/I41S/D60bT/Y60gW/D96K/F97G/ins97aV/T98P/F99L/C122S/G151H/Q175L/Q192D (enzyme)
chain: VVGGTDADEGEWPWQVSLHALGHGHSCGASLISPNWLVSAAHCYIDTRGFRWSDPTQWTAFLGLHDQSQRSAPGVQERRLKRIISHPFFNKGVPLDYDIALLELEKPAEYSSMVRPISLPDASHVFPAGKAIWVTGWGHTQYGGTHALILQKGEIRVINQTTCENLLPQLITPRMMCVGFLSGGVDSCDGDSGGPLSSVEADGRIFQAGVVSWGDGCAQRNKPGVYTRLPLFRDWIKENTGV
B11: MTSP-1 protease domain Q38H/I41S/D96S/ins97aK/C122S/G151N/Q192A (enzyme)
chain: VVGGTDADEGEWPWQVSLHALGHGHSCGASLISPNWLVSAAHCYIDDRGFRYSDPTQWTAFLGLHDQSQRSAPGVQERRLKRIISHPFFNSFKTFDYDIALLELEKPAEYSSMVRPISLPDASHVFPAGKAIWVTGWGHTQYGGTNALILQKGEIRVINQTTCENLLPQQITPRMMCVGFLSGGVDSCAGDSGGPLSSVEADGRIFQAGVVSWGDGCAQRNKPGVYTRLPLFRDWIKENTGV
B12: MTSP-1 protease domain Q38H/I41A/D96A/ins97aA/C122S/G151D/Q192T (enzyme)
chain: VVGGTDADEGEWPWQVSLHALGHGHACGASLISPNWLVSAAHCYIDDRGFRYSDPTQWTAFLGLHDQSQRSAPGVQERRLKRIISHPFFNAFATFDYDIALLELEKPAEYSSMVRPISLPDASHVFPAGKAIWVTGWGHTQYGGTDALILQKGEIRVINQTTCENLLPQQITPRMMCVGFLSGGVDSCTGDSGGPLSSVEADGRIFQAGVVSWGDGCAQRNKPGVYTRLPLFRDWIKENTGV
B13: MTSP-1 protease domain I41A/ins97aY/F99L/C122S/Q175R/Q192H (enzyme)
chain: VVGGTDADEGEWPWQVSLHALGQGHACGASLISPNWLVSAAHCYIDDRGFRYSDPTQWTAFLGLHDQSQRSAPGVQERRLKRIISHPFFNDFYTLDYDIALLELEKPAEYSSMVRPISLPDASHVFPAGKAIWVTGWGHTQYGGTGALILQKGEIRVINQTTCENLLPQRITPRMMCVGFLSGGVDSCHGDSGGPLSSVEADGRIFQAGVVSWGDGCAQRNKPGVYTRLPLFRDWIKENTGV
B14: MTSP-1 protease domain Q38H/I41S/D96Q/ins97aT/C122S/G151N/Q192A (enzyme)
chain: VVGGTDADEGEWPWQVSLHALGHGHSCGASLISPNWLVSAAHCYIDDRGFRYSDPTQWTAFLGLHDQSQRSAPGVQERRLKRIISHPFFNQFTTFDYDIALLELEKPAEYSSMVRPISLPDASHVFPAGKAIWVTGWGHTQYGGTNALILQKGEIRVINQTTCENLLPQQITPRMMCVGFLSGGVDSCAGDSGGPLSSVEADGRIFQAGVVSWGDGCAQRNKPGVYTRLPLFRDWIKENTGV

Sequence of plasma purified human complement protein C3 (human) (P01024 23-667, chain 1 of 2): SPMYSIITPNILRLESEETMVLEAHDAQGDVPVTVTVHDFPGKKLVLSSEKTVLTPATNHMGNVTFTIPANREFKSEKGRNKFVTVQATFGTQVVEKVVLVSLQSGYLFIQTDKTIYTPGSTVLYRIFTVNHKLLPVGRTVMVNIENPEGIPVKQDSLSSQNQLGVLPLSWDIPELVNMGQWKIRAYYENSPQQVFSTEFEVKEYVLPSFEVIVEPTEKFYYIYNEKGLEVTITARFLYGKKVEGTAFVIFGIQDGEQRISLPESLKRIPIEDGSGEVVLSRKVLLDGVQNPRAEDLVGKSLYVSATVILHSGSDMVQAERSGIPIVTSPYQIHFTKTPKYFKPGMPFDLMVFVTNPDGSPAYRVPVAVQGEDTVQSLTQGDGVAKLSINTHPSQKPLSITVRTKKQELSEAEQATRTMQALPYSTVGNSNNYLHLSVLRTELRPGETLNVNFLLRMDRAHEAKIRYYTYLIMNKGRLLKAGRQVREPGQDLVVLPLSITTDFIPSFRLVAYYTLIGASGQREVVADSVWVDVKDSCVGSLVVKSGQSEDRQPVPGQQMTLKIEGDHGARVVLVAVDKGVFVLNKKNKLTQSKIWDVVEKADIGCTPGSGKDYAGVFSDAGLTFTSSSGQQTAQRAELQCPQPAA
Sequence of plasma purified human complement protein C3 (human) (P01024 672-1663, chain 2 of 2): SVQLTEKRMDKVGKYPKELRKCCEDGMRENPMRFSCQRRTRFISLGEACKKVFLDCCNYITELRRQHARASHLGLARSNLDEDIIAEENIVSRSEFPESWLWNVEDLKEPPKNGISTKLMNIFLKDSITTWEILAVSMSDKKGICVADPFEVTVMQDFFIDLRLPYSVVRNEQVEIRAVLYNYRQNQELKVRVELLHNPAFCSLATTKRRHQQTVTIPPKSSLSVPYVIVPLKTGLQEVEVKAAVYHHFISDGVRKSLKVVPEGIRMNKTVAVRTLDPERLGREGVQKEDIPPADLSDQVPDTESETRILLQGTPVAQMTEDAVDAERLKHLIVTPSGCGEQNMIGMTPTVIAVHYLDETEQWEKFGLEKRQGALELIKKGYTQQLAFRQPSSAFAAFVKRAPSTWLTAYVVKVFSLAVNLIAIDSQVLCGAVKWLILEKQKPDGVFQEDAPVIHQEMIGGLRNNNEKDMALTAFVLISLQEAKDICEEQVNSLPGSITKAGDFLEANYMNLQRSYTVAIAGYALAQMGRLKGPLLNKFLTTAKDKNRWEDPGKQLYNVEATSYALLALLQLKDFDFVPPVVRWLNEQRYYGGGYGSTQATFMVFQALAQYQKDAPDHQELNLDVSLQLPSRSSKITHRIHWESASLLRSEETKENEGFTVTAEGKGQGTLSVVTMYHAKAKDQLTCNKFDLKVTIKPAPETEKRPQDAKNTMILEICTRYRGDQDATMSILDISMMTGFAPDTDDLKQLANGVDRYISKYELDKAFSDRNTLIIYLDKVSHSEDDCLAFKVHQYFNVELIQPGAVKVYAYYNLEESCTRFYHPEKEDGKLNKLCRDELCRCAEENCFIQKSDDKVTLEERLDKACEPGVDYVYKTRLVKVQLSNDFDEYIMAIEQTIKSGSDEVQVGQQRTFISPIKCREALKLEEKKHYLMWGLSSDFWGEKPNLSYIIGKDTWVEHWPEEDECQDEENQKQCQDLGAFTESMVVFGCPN

The test has as its target plasma purified human complement protein C3 (human) (UniProt P01024). The test can be described thus: cell-based or functional assay.
Turning to B1, the EC50 hC3 cleavage is 4.06 nM.

Consider B2, for which the EC50 hC3 cleavage is 6.95 nM.

As for B3, the EC50 hC3 cleavage was 23.2 nM.

In turn, B4 showed an EC50 hC3 cleavage of 5.3 nM.

Take B5: the EC50 hC3 cleavage came out at 10.8 nM.

As to B6, the EC50 hC3 cleavage amounted to 27.5 nM.

For B7, the EC50 hC3 cleavage came to 12 nM.

As for B8, the EC50 hC3 cleavage was 28 nM.

B9: the EC50 hC3 cleavage turned out to be 8.9 nM.

As for B10, the EC50 of hC3 cleavage was determined as 8.64 nM.

B11: the EC50 hC3 cleavage turned out to be 16.7 nM.

As for B12, the EC50 hC3 cleavage was determined as 9.25 nM.

In the case of B13, the EC50 hC3 cleavage is 14.8 nM.

With B14, the EC50 hC3 cleavage is 17.9 nM.

(Values after patent publication US20240018502A1.)
